# Assay: yeast display, Sf9 membrane polyspecificity reagent, FACS + sequencing; frameworks hold sequencing errors
# Outline: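 Using colony PCR, genes from sorted yeast display clones were amplified, then sequenced on MiSeq at 2 × 250 and filtered by CDR length. The clones had been stained with 10% biotinylated, detergent-solubilized Sf9 membrane reagent for 1 hour at 4 °C and sorted by FACS into low and high (top ~1%) gates on anti-HA and streptavidin fluorescence. Polyreactivity labels come from the gate of origin.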
row,Sequence,polyreactivity (PSR sort gate)
1,QVQLVESGGGLVQAGGSLRLSCAASGSIFVGNAMGWYRQAPGKEREFVASISWDGTTYYADSVKGRFTISRDNAKNTVYLQMNSLKPEDTAVYYCAADVSTYGAQATEGTDLEYDYWGQGTLVTVSS,low polyreactivity
2,QVQLVESGGGLVQAGGSLRLSCAASGSIFVGNAMGWYRQAPGKERELVAAISWSGGSTYYADSVKGRFTISRDNAKNTVYLQMNSLKPEDTAVYYCATQLSIRMDYWGQGTQVTVSS,high polyreactivity
3,QVQLVESGGGLVQAGGSLRLSCAASGSIFVGNAMGWYRQAPVKERELVADINVTGGTTYYADSVKGRFTISRDNAKNTVYLQMNSLKPEDTAVYYCAARQSIFYSWTGVEYYYWGQGTQVTVSS,low polyreactivity
4,QVQLVESGGGLVQAGGSLRLSCAASGSIFVGNTMGWYRQAPGKERELVAAITWSGGRTYYADSVKGRFTISRDNAKNNVYLQMHSLKPEDTAVYYLKALAYYIRYYYWGKGTQVTVSS,high polyreactivity
5,QVQLVESGGGLVQAGGSLRLSCAASGSIFVGYAMGWYRQAPGKERELVAAISKRGGGTYYADSVKGRFTISRDNAKNTVYLQMNSLKPEDTAVYYCNAVTVHLDVASGYYYWGQGTQVTVSS,high polyreactivity
6,QVQLVESGGGLVQAGGSLRLSCAASGSIFVGYAMGWYRQAPGKERELVAAISQRGGITYYADSVKGRFTISRDNAKNTVYLQMNSLKPEDTAVYYCAAPRYLSYVRRYDYWGQGTQVTVSS,high polyreactivity
7,QVQLVESGGGLVQAGGSLRLSCAASGSIFVGYAMGWYRQAPGKERELVAAISRSGGTTYYADSVKGRFTISRDTAKNTVYLQMNSLKPEDTAVYYCAAERWAYYRSGLWWPYDYWGQGTQVTVSS,high polyreactivity
8,QVQLVESGGGLVQAGGSLRLSCAASGSIFVGYAMGWYRQAPGKERELVAAITSGGNTNYADSVKGRFTISRDNAKNTVYLQMNSLKPEDTAVYYCNKDQGDGLRSQLGTDATYDYWGQGTQVTVSS,low polyreactivity
9,QVQLVESGGGLVQAGGSLRLSCAASGSIFVGYAMGWYRQAPGKVRELVAAISRRGGSTYYADSVKGRFTISRDNAKNTLYLQMNSLKPEDTAVYYCAARQSTSATSGYYSWGQGTQVTVSS,high polyreactivity
10,QVQLVESGGGLVQAGGSLRLSCAASGSIFVGYAMGWYRQARGKERELVAAITGSGTRTYYADSVKGRFTISRDNAKNTVYLQMNSLKPEDTAVYYCAAVTYHGNPSEYYPDTVGFYYWGQGTQVTVSS,low polyreactivity
11,QVQLVESGGGLVQAGGSLRLSCAASGSIFVGYGAMGWYRQAPGKERELVAAITSGNSTYYADSVKGRFTISRDNAKNTVYLQMNSLKPEDTAVYYCAARGFLKYVTEFDYWGQGTQVTVSS,low polyreactivity
12,QVQLVESGGGLVQAGGSLRLSCAASGSIFVHYAMGWYRQAPGKERELVAAITSSGGRTYYADSVKGRFTISRDNAKNTVYLQMNSLKPEDTAVYYCNAAKYLYRHGFLSAGDMYYWGQGTQVTVSS,high polyreactivity
13,QVQLVESGGGLVQAGGSLRLSCAASGSIFVHYDMGWYRPAPGKERELVADIDYSGGSTYYADSVKGRFTISRDNAKNTVYLQMNSLKPEDTAVYYCAAERRRWGLDYYYWGQGTQVTVSS,high polyreactivity
14,QVQLVESGGGLVQAGGSLRLSCAASGSIFVKNAMGWYRQAPGKERELVARSSFSGGSTYYADSVKGRFTISRDNAKNTVYLQMNSLKPEDTAVYYCAVDGGEFSSYGYWGQGTQVTVSS,low polyreactivity
15,QVQLVESGGGLVQAGGSLRLSCAASGSIFVKNVMGWYRQAPGKERELVAAISSSGGRTYYADSVKGRFTISRDNAKNTVYLQMNSLKPEDTAVYYCNKAYPGRRDGSYDYWGQGTQVTVSS,high polyreactivity
16,QVQLVESGGGLVQAGGSLRLSCAASGSIFVKYAMGWYRQAPGKERELVAAISRNGGSTYYADSVKGRFTISRDNAKNTVYLQMNSLKPEDTAVYYCNKVRPGWTYEYGYWGQGTQVTVSS,high polyreactivity
17,QVQLVESGGGLVQAGGSLRLSCAASGSIFVKYAMGWYRQAPGKERELVAAITTGVGSTYYADSVKGRFTISRDNAKNTVYLQMNSLKPEDTAVYYCAAETIDYWYILEYDYWGQGTQVTVSS,low polyreactivity
18,QVQLVESGGGLVQAGGSLRLSCAASGSIFVLNAMGWYRQAPGKERELVAAITGTGDRTYYADSVKGRFTISRDNAKNTVYLQMNSLKPEDTAVYYCAATVGDAYYEYDYWGQGTQVTVSS,low polyreactivity
19,QVQLVESGGGLVQAGGSLRLSCAASGSIFVLYAMGWYRQAPGKERELVAAINYDGASTYYADSVKGRFTNSRDNAKNTVYLQMISLKREDTAVYYCAASWQFNIDVQLYLFEYWGQGTQVTVSS,low polyreactivity
20,QVQLVESGGGLVQAGGSLRLSCAASGSIFVNNAMGWYRQAPGKERELVAAIRRGSSTNYADSVKGRFTISRDNAKNTVYLQMNSLKPEDTAVYYCAADHVDDEAQNYDYWGQGTQVTVSS,low polyreactivity
21,QVQLVESGGGLVQAGGSLRLSCAASGSIFVPYAMGWYRQAPGKERELVAAINSGGGTDYADSVKGRFTISRDNAKNTVYLQMNSLKPEDTAVYYCAKSRVAYRGWDHKYYIYDYWGQGTQVTVSS,low polyreactivity
22,QVQLVESGGGLVQAGGSLRLSCAASGSIFVPYAMGWYRQAPGKERELVAAISSRGGRTYYADSVKGRFTISRDNAKNTVYLQMNSLKPEDTAVYYCNKTAGSHIPRLEYWGQGTQVTVSS,low polyreactivity

row,Sequence,polyreactivity (PSR sort gate)
1,QVQLVESGGGLVQAGGSLRLSCAASGSIFVPYAMGWYRQAPGKERELVAAISSSTASTYYADSVKARFTISRDYAKNTVYFQMNCLKPEDTAVYYCNAEQWDYGVRVAHYDYWGQGTQVTVSS,low polyreactivity
2,QVQLVESGGGLVQAGGSLRLSCAASGSIFVRNAMGWYRQAPGKERELVAAISRSGSSTYYADSVKGRFTISRDIAKNTVYLQMNSLKPEDTAVYYCAARRRYKMDYWGQGTQVTVSS,high polyreactivity
3,QVQLVESGGGLVQAGGSLRLSCAASGSIFVRYAMGWYRQAPGKERELVASIRSRGDSTYYADSVKGRFTISRDNAKNTVYLQMNSLKPEDTAVYYCAVQRSYVGPRQYNYWGQGTQVTVSS,high polyreactivity
4,QVQLVESGGGLVQAGGSLRLSCAASGSIFVSNAMGWYRQAPGKEREMVAAISQSGGSTYYADSVKGLFTISRDNAKNTVYLQMNSLKPEDTEVYYCATPIRSGFRIYEYWGQGTQVTVSS,low polyreactivity
5,QVQLVESGGGLVQAGGSLRLSCAASGSIFVSYAMGWYRQAPGKERELVAAITGRTGSTYYADSVKGRFTISRDNAKNTVYLQMNSLKPEDTAVYYCAARHKQHNRYDYWGHGTQVTVSS,low polyreactivity
6,QVQLVESGGGLVQAGGSLRLSCAASGSIFVSYAMGWYRQAPGKERELVAAITGSGASTYYADSVKGRFTISRDNAKNTVYLQMNSLKPEDTAVYFCAAAPGKGPGYDYWGQGTQVTVSS,low polyreactivity
7,QVQLVESGGGLVQAGGSLRLSCAASGSIFVSYAMGWYRQAPGKERELVAAITRSGGSTYYADSVKGRFTISRDNAKNTLYLQMNSLKPEDTAVYYCAARSYLGAYRRYYWGQGTQVTVSS,high polyreactivity
8,QVQLVESGGGLVQAGGSLRLSCAASGSIFVSYAMGWYRQAPGKERELVAAITRSGGSTYYADSVKGRFTISRDNAKNTVYLQMNSLKPEDTAVYYCAARSYLGAYRRYYWGQGTQVTVSS,high polyreactivity
9,QVQLVESGGGLVQAGGSLRLSCAASGSIFVSYAMGWYRQAPGKERELVAVISYSGVSTYYADSVKGRFTISRDNAKNTVYLQMYSLKPEDTAVYYCATRQYGTRHILKYNYWGQGTQVTVSS,low polyreactivity
10,QVQLVESGGGLVQAGGSLRLSCAASGSIFVSYTMGWYRQAPGKERELVAAITRSGGSTYYADSVKGRFTISRDNAKNTVYLQMNSLKPEDTAVYYCARVSRRGPGYTTLYSRYDYWGQVTQVTVSS,low polyreactivity
11,QVQLVESGGGLVQAGGSLRLSCAASGSIFVTYAMGWYRQAPGKERDLVATITNVGRTNYADSVKGRFTISRDNAKNTVYLQMNSLKPEDTAVYYCNADGAPGYPGAYDYWGQGTQVTVSS,low polyreactivity
12,QVQLVESGGGLVQAGGSLRLSCAASGSIFVTYAMGWYRQAPGKERELVASISWRGVSTRYADSVKGRFTISRDNAKNTVYLQMNSLKPEDTAVYYCAARVTSHMYYWGQGTQVTVSS,high polyreactivity
13,QVQLVESGGGLVQAGGSLRLSCAASGSIFVTYAMGWYRQAPWKDWELVAAISTSGGSTYADSVKGRFTISRDNAKNTVYLQMNSLKPVDTAVYYCNADDPGYAVPWYWFKYDYWGQGTQVTVSS,low polyreactivity
14,QVQLVESGGGLVQAGGSLRLSCAASGSIFVVNAMGWYRQAPGKERELVAAITFSGDSTYYADSVKGRFTISRDNAKNTVYLQMNSLKPEDTAVYYCAAARRSSHWFTYDYWGQGTQVTVSS,high polyreactivity
15,QVQLVESGGGLVQAGGSLRLSCAASGSIFVVYAMGWYRQAPGKEREMVAVISNGGTTNYADSVKGRFTISRDNAKNTVYLQMNSLKPEDTAVYYCAKASSRRYWTIRDGDYWGQGTQVTVSS,low polyreactivity
16,QVQLVESGGGLVQAGGSLRLSCAASGSIFVWNALGWYRQAPGTERELVAAISYTDGSTYYADSVKGRFTISRDNATNTVYFQMNSLKPEVTAVYYCNAYPASRGPGNPLDDYWGQGTQVTVSS,low polyreactivity
17,QVQLVESGGGLVQAGGSLRLSCAASGSIFVWNAMGWYRPAPGKERELVAAIRSDDDSTYYADSVKGRFTISRDNAKNTVYLQMNSLKPEDTAVITALVDSPTFSHVKPWDGGDYWGQGTQVTVSS,low polyreactivity
18,QVQLVESGGGLVQAGGSLRLSCAASGSIFVWYAMGWYRQAPGKERELVAAITSSGGSTYYADSVKGRFTISRDYAKNTVYLQLNSLKPEDTAVYYCAKTPSRRGYYWGQGTQVTVSS,low polyreactivity
19,QVQLVESGGGLVQAGGSLRLSCAASGSIFVWYAMGWYRQAPGKERELVAVISYGGDRTSYADSVKGRFTISRDNAKNTVYLQMNSLKPEDTAVYYCAARPFYRGYYYWGQGTQVTVSS,high polyreactivity
20,QVQLVESGGGLVQAGGSLRLSCAASGSIFVWYDMGWYRQAPGKERELVATISLSGVSTYYADSVKGRFTISRDNAKNPVYLQLNSLKPEDTAVYYCAADFVEQGEDDYWGQGTQVTVSS,low polyreactivity
21,QVQLVESGGGLVQAGGSLRLSCAASGSIFVYNAMGWYRQAPGKEMELVASITWSGGRTYYADSVKGRFTISRDHAKNTVYLQMNSLKPEDTAVYYCNKRQYSRTFRYGYWGQGTQVTLSS,high polyreactivity

# Source: the nanobody polyreactivity screen of Harvey et al. (2022)
